The values that follow come from PMC2905227 (Journal of the American Chemical Society, 2010).

The assay concerns the target T1, wild-type E. coli ribonucleotide reductase α2 subunit (E. coli, UniProt P00452 1-761).
T1 sequence (looked up): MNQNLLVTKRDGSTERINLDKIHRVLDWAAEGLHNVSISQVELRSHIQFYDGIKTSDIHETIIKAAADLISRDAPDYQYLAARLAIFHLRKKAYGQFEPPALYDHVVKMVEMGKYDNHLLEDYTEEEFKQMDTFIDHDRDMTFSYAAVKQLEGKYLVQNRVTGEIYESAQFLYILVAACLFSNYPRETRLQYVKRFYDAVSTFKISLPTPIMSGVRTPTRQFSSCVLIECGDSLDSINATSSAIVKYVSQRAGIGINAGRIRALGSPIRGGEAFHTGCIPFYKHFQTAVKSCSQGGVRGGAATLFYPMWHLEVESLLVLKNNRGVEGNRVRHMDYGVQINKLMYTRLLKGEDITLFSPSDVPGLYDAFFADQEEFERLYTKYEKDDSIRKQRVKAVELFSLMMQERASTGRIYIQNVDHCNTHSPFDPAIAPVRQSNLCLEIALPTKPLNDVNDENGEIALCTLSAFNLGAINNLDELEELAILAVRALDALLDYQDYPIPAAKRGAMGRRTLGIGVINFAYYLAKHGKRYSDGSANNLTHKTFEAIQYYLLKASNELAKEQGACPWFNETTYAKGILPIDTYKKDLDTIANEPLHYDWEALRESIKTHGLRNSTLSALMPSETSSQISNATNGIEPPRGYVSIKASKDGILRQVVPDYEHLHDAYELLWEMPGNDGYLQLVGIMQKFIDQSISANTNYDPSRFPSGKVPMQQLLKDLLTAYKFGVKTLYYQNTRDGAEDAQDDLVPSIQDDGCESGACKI
The experiment in a line: competitive inhibition of enzyme activity.

The Kd is the free concentration of one partner at which half of the binding sites on the other are occupied at equilibrium, for simple one-to-one binding.

B1: [NO2Y122]-β2 (enzyme)
chain: AYTTFSQTKNDQLKEPMFFGQPVNVARYDQQKYDIFEKLIEKQLSFFWRPEEVDVSRDRIDYQALPEHEKHIFISNLKYQTLLDSIQGRSPNVALLPLISIPELETWVETWAFSETIHSRSYTHIIRNIVNDPSVVFDDIVTNEQIQKRAEGISSYYDELIEMTSYWHLLGEGTHTVNGKTVTVSLRELKKKLYLCLMSVNALEAIRFYVSFACSFAFAERELMEGNAKIIRLIARDEALHLTGTQHMLNLLRSGADDPEMAEIAEECKQECYDLFVQAAQQEKDWADYLFRDGSMIGLNKDILCQYVEYITNIRMQAVGLDLPFQTRSNPIPWINTWLVSDNVQVAPQEVEVSSYLVGQIDSEVDTDDLSNFQL
modifications: 3-nitrotyrosine (NO2Y) in place of Y122; diferric cluster (met form, 2.9 Fe/β2)
In turn, B1 showed a Kd of 400 ± 60 nM.
